From patent US20230226096A1 (Orna Therapeutics, Inc., priority 2020, published 2023) come the findings set out here.

To fix the notation:
B1: Aichivirus Chshc7 (nucleic acid, listed as Aichivirus sp.)
DNA: TTACTCCATTCAGCTTCTTCGGAACCTGTTCGGAGGAATTAAACGGGCACCCATACATCCCCATCCCCTTTCTGTAACTTAAGTATGTGTGCTTGTAATCTTGACTCCCACGGAATGGATCGATCCGCTGGAGAACAAACTGCTAGATCCACATCCTCCCTTCCCCTGGGAGGACCTTGGTCCTCCCACATCCTCCCCCCAGCCTGACGTACCACAGGCTGTGTGAAGCCCCCGCGAAAGCTGCTCACGTGGCAATTGTGGGTCCCCCCTTCATCAAGACACCAGGTCTTTCCTCCTTAAGGCTAGCCCCGATGTGTGAATTCACATTGGGCAACTAGTGGTGTCACTGTGCGCTCCCAATCTCGGCCGCGGAGTGCTGTTCCCCAAGCCAAACCCCTGGCCCTTCACTATGTGCCTGGCAAGCATATCTGAGAAGGTGTTCCGCTGTGGCTGCCAGCCTGGTAACAGGTGCCCCAGTGTGCGTAACCTTCTTCCGTCTCCGGACGGTAGTGATTGGTTAAGATTTGGTGTAAGGTTCATGTGCCAACGCCCTGTGCGGGATGAAATCTCTACTGCCCTAGGAATGCCAGGCAGGTACCCCACCCTCGGGTGGGATCTGAGCCTGGGCTAATTGTCTACGGGTAGTTTCATTTCCAATCCTTTTATGTCGGAGTC
B2: Aichivirus Rt386 (nucleic acid, listed as Aichivirus sp.)
DNA: ACTCCATTCAGCTTCTTCGGAACCTGTTCGGAGGAATTAAACGGGCACCCACTTTCCTGTCCTCTCCCCCTTTCTGCAACTCAAGTGTGTGCTCGTAATCCTGACTCCCACGGGTTGACCGCCCCGTTGGTGAACAAACAGCTAGGTCATTCCCTCCCTACCCCTGGGCGCCATTTCAGTGGCGTTCATATCCTCCCCCCAGCCTGACGTGTCACAGGCTGTGCAAAGTCCCCGCGAAAGCTGCTCACGTGGCAATTGTGGGTCCCCCCTTTGTGAAGGAACCGAGTCTTTCTCCCTTAAGGCTAGACCCCTGTGTGAACTCACAGGTGGCAACTAGTGGTTCCACTGCATGCTCCCGACCTCGGCCGCGGAGTGCTGTTCCCCAAGTCGTGACACTGACCTCCACTTATGTGCCTGGCAAGCATATCTGAGAAGATGTTCCGCTGTGGCTGCCAAACCTGGTAACAGGTGCCCCAGTGCGTGTAGTCTTCTTCCGTCTCCGGACGGTAAGTGTGTGGTAAAGATGCGGCGTAAGGTTCAAGTGCCAACGCCCTGGAAGGGATGACCCTTCTACTGCCCTAGGAATGCCGCGCAGGTACCCCAGGTTCGCCTGGGATCTGAGCGCGGGCTAATTGTCTACGGGTAGTTTCATTTCCCTCTCTTTTCACTGGCATC
B3: Aichivirus DVI2169 (nucleic acid, listed as Aichivirus sp.)
DNA: TACTCCATTCAGCTTCTTCGGAACCTGTTCGGAGGAATTAAACGGGCACCCATACACCCCCACCCCCTTTTCTGCAACTTAAGTATGTGTGCTCGTAATCTTGACTCCCACGGAATGGATCGATCCGCTGGAGAACAAACTGCTAGATCCACATCCTCCCTTCCCCTGGGAGGACCCCGGTCCTCCCACATCCTCCCCCCAGCCTGACGTATCACAGGCTGTGTGAAGTCCCCGCGAAAGCTGCTCACGTGGCAATTGTGGGTCCCCCCTTCATCAAGACACCAGGTCTTTCCTCCTTAAGGCTAGCCCCGATGTGTGAATTCACATTGGGCAACTAGTGGTGTCACTGTGCGCTCCCAATCTCGGCCGCGGAGTGCTGTTCCCCAAGCCAAACCCCTGGCCCTTCACTATGTGCCTGGCAAGCATATCTGAGAAGGTGTTCCGCTGTGGCTGCCAGCCTGGTAACAGGTGCCCCAGTGTGCGTAACCTTCTTCCGTCTCCGGACGGTAGTGATTGGTTAAGATTTGGTGTAAGGTTCATGTGCCAACGCCCTGTGCGGGATGAAACCTCTACTGCCCTAGGAATGCCAGGCAGGTACCCCACCTTCGGGTGGGATCTGAGCCTGGGCTAATTGTCTACGGGTAGTTTCATTTCCAATTCTTTTATGTCGGAGTC
B4: Symapivirus A (nucleic acid)
DNA: TTGGGAAATCCCCAATGCTTCTTTCAACACCGCCTGACTATGCGGTGGCGCTTCGGCTCAAACAACTAGTCACTTCCCCCTCTTAACTACTACCCAAGACTTCTAACTACCCTTACCTACTTATTTGTCTAAATTTCAAACTTTTATTCTCACGCGTCTTATAAACATCTTTTCTATTTGTTATGGTATGTTTTGTGATTTGTGTGGTGTATTTCATTTAATGGGATCTAGTGGACCGTGCCCCGGTTGGGTATCCGCTCCCTTTAAATGTTTGCAAGCACTCTTGACATTATAACCTATCATTTAGTTTACTTGTTTGTATGATCGTATTTCTGAATCGTAACATTTATGCAATTCTTTCTCGCCGAGACTTGTCTAGGAGATAAAGTTCCTGCATATTTAGTGTTACGGTTGTATAATGGAGACTTAGATAGCTTCACACTGAGGACGCTTTTTCGCTATCCTTTTGACCTGATTCAGGCCAGTGTGGAGTTAATGATTGTATGGATGGGCCCTACAATTTGTCTAAGACTTGGTGATAGCCTCGCGGCCGCTCGCCATTTATACAACTGAATAGCGGTTGAAACTCTCT
modifications: Symapivirus A
B5: Aichivirus DVI2321 (nucleic acid, listed as Aichivirus sp.)
DNA: GCTTCTTCGGAACCTGTTCGGAGGAATTAAACGGGCACCCATACACCCCCACCCCCTTTTCTGCAACTTAAGTATGTGTGCTCGTAATCTTGACTCCCACGGAATGGATCGATCCGCTGGAGAACAAACTGCTAGATCCACATCCTCCCTTCCCCTGGGAGGACCCCGGTCCTCCCACATCCTCCCCCCAGCCTGACGTATCACAGGCTGTGTGAAGTCCCCGCGAAAGCTGCTCACGTGGCAATTGTGGGTCCCCCCTTCATCAAGACACCAGGTCTTTCCTCCTTAAGGCTAGCCCCGATGTGTGAATTCACATTGGGCAACTAGTGGTGTCACTGTGCGCTCCCAATCTCGGCCGCGGAGTGCTGTTCCCCAAGCCAAACCCCTGGCCCTTCACTATGTGCCTGGCAAGCATATCTGAGAAGGTGTTCCGCTGTGGCTGCCAGCCTGGTAACAGGTGCCCCAGTGTGCGTAACCTTCTTCCGTCTCCGGACGGTAGTGATTGGTTAAGATTTGGTGTAAGGTTCATGTGCCAACGCCCTGTGCGGGATGAAACCTCTACTGCCCTAGGAATGCCAGGCAGGTACCCCACCTTCGGGTGGGATCTGAGCCTGGGCTAATTGTCTACGGGTAGTTTCATTTCCAATTCTTTTATGTCGGAGTC
B6: Aichivirus rat08 (nucleic acid, listed as Aichivirus sp.)
DNA: TACTCCATTCAGCTTCTTCGGAACCTGTTCGGAGGAATTAAACGGGCACCCACTTTCCTGTCCTCTCCCCTTTTCTGTAACTCCAAGTGTGTGCTCGTAATCTTGACTCCCGCGGATTGACCGCTCCGCTGGTGAACAAACTGCTAGGTCATCTCCTCCCCACCCTTGGGCGTCCTTCCGGGCGTCCACACCCTCCCCCCAGCCTGACGTGTCACAGGCTGTACAAAGACCCCGCGAAAGCTGCTAACGTGGCAATTGTGGGTCCCCCCTTTGTAAAGGAACCGAGTCTTTCTCCCTTAAGGCTAGACCCCTGTGTGAATTCACAGGTGGCAACTAGTGGTTCCACTGCATGCTCCCGACCTCGGCCGCGGAGTGCTGTTCCCCAAGTCGTAACACTGACCTTCACTTATGTGCCTGGCAAGCATATCTGAGAAGATGTTCCGCTGTGGCTGCCAAACCTGGTAACAGGTGCCCCAGTGTGCGTAGTCTTCTTCCGTCTTCGGACGGTAGGTGTTAGGTAAAGATGCGGCGTAAGGTTCAAGTGCCAACGCCCTGGAAGGGATGACCCTTCTACTGCCCTAGGAATGCCGCGCAGGTACCCCAGGTTCGCCTGGGATCTGAGCGCGGGCTAATTGTCTACGGGTAGTTTCATTTCCCTCTTCTTCCACTGGCATC
B7: Aichivirus Goiania (nucleic acid, listed as Aichivirus sp.)
DNA: ACTCCATTCAGCTTCTTCGGAACCTGTTCGGAGGAATTAAACGGGCACCCATACACCCCCATCCCCTTTTTTGCAACTTAAGTATGTGTGCTCGTAATCTTGACTCCCACGGAATGGATCGATCCGCTGGAGAACAAACTGCTAGATCCACATCCTCCCTCCCCCCTGGGAGGACCTCGGTCCTCCCACATCCTCCCCCCAGCCTGACGTATCACAGGCTGTGTGAAGCCCCCGCGAAAGCTGCTCACGTGGCAATTGTGGGTCCCCCCTTCATCAAGACACCAGGTCTTTCCTCCTTAAGGCTAGTCCCGATGTGTGAATTCACATCGGGCAACTAGTGGTGTCACTGTGCGCTCCCAATCTCGGCCGCGGAGTGCTGTTCCCCAAGCCAAACCCCTGGCCCTTCACTATGTGCCTGGCAAGCATATCTGAGAAGGCGTTCCGCTGTGGCTGCCAGCCTGGTAACAGGTGCCCCAGTGTGCGTAACCTTCTTCCGTCCCCGGACGGTAGTGATTGGTTAAGACTTGGCGTAAGGTTCATGTGCCAACGCCCTGTGCGGGATGAAACCTCTACTGCCCTAGGAATGCCAGGCAGGTACCCCACCTTCGGGTGGGATCTGAGCCTGGGCTAATTGTCTACGGGTAGTTTCATTTCTAATTCTTTCATGTCGGAGTC
B8: Aichivirus ETHP4 (nucleic acid, listed as Aichivirus sp.)
DNA: TTACTCCATTCAGCTTCTTCGGAACCTGTTCGGAGGAATTAAACGGGCACCCATACACCCCCACCCCCTTTTTGCAACTTAAGTATGTGTGCTCGTGATCTTGACTCCCACGGAATGGATCGATCCGCTGGAGAACAAACTGCTAGATCCACATCCTCCCTTCCCTTGGGAGGACCTCGGTCCTCCCACATCCTCCCCCCAGCCTGACGTACCACAGGCTGTGTGAAGCCCCCGCGAAAGCCGCTCACGTGGCAATTGTGGGTCCCCCCTTCATTAAGACACCAGGTCTTTCCTCCTTAAGGCTAGTCCCGATGTGTGAATTCACATTGGGCAACTAGTGGTGTCACTGTGCGCTCCCAATCTCGGCCGCGGAGTGCTGTTCCCCAAGCCAAACCCCTGGCCCTTCACTATGTGCCTGGCAAGCATATCTGAGAAGGTGTTCCGCTGTGGCTGCCAGCCTGGTAACAGGTGCCCCAGTGTGCGTAACCTTCTTCCGTCTTCGGACGGTAGTGATTGGTTAAGATTTGGCGTAAGGTTCATGTGCCAACGCCCTGTGCGGGATGAAACCTCTACTACCCTAGGAATGCCAGGCAGGTACCCCACCCTCGGGTGGGATCTGAGCCTGGGCTAATTGTCTACGGGTAGTTTCATTTCCAATTCTTCTATGTCGGAGTC

In the data set the test system is HEK293 cells. The format is cell-based, human. As to conditions: luminescence from secreted Gluc in supernatant 24 hours after transfection of HEK293 cells; circular RNA encoding Gluc with the named IRES (UTR truncated to 675 nt).
As to B1, the Expression is listed as 1.87E+07. Then B2, with 5.71E+07; and B3, with 2.98E+06; and B4, with 1.27E+05. With B5, the Expression was determined as 6.63E+07.

B6 came in with an Expression of 3.51E+07. Then B7, with 1.66E+07; and B8, with 1.78E+07.
